The supplement of paper PMC5998384

Key:
HeLa Kyoto [1] = assay: solubility change mitosis vs G1/S (difference of NP-40 vs SDS log2 ratios) (log2 ratio difference); higher = more soluble in mitosis
HeLa Kyoto [2] = assay: solubility in G1/S (NP-40 vs SDS abundance) (log2 ratio); higher = more soluble; details: cell cycle stage: G1/S
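Wherever solubility change mitosis vs G1/S (difference of NP-40 vs SDS log2 ratios) is given: synchronized HeLa Kyoto cells (double thymidine block for G1/S, nocodazole release for mitosis), protein amounts in NP-40 versus SDS lysates quantified by mass spectrometry, three biological replicates.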
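Wherever solubility in G1/S (NP-40 vs SDS abundance) is given: HeLa Kyoto cells arrested at G1/S by double thymidine block, proteins quantified by TMT10plex mass spectrometry in mild NP-40 versus SDS extracts, three biological replicates.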

| Sequence | solubility change mitosis (log2) (HeLa Kyoto [1]) | solubility in G1/S (log2) (HeLa Kyoto [2]) |
| --- | --- | --- |
| MPDNRQPRNRQPRIRSGNEPRSAPAMEPDGRGAWAHSRAALDRLEKLLRCSRCTNILREPVCLGGCEHIFCSNCVSDCIGTGCPVCYTPAWIQDLKINRQLDSMIQLCSKLRNLLHDNELSDLKEDKPRKSLFNDAGNKKNSIKMWFSPRSKKVRYVVSKASVQTQPAIKKDASAQQDSYEFVSPSPPADVSERAKKASARSGKKQKKKTLAEINQKWNLEAEKEDGEFDSKEESKQKLVSFCSQPSVISSPQINGEIDLLASGSLTESECFGSLTEVSLPLAEQIESPDTKSRNEVVTPEKVCKNYLTSKKSLPLENNGKRGHHNRLSSPISKRCRTSILSTSGDFVKQTVPSENIPLPECSSPPSCKRKVGGTSGRKNSNMSDEFISLSPGTPPSTLSSSSYRRVMSSPSAMKLLPNMAVKRNHRGETLLHIASIKGDIPSVEYLLQNGSDPNVKDHAGWTPLHEACNHGHLKVVELLLQHKALVNTTGYQNDSPLHDAAKNGHVDIVKLLLSYGASRNAVNIFGLRPVDYTDDESMKSLLLLPEKNESSSASHCSVMNTGQRRDGPLVLIGSGLSSEQQKMLSELAVILKAKKYTEFDSTVTHVVVPGDAVQSTLKCMLGILNGCWILKFEWVKACLRRKVCEQEEKYEIPEGPRRSRLNREQLLPKLFDGCYFYLWGTFKHHPKDNLIKLVTAGGGQILSRKPKPDSDVTQTINTVAYHARPDSDQRFCTQYIIYEDLCNYHPERVRQGKVWKAPSSWFIDCVMSFELLPLDS [BARD1] | 0.187 | -0.332 |
| MPGLVDSNPAPPESQEKKPLKPCCACPETKKARDACIIEKGEEHCGHLIEAHKECMRALGFKI [COX17] | 0.425 | -0.216 |
| MPIPPPPPPPPGPPPPPTFHQANTEQPKLSRDEQRGRGALLQDICKGTKLKKVTNINDRSAPILEKPKGSSGGYGSGGAALQPKGGLFQGGVLKLRPVGAKDGSENLAGKPALQIPSSRAAAPRPPVSAASGRPQDDTDSSRASLPELPRMQRPSLPDLSRPNTTSSTGMKHSSSAPPPPPPGRRANAPPTPLPMHSSKAPAYNREKPLPPTPGQRLHPGREGPPAPPPVKPPPSPVNIRTGPSGQSLAPPPPPYRQPPGVPNGPSSPTNESAPELPQRHNSLHRKTPGPVRGLAPPPPTSASPSLLSNRPPPPARDPPSRGAAPPPPPPVIRNGARDAPPPPPPYRMHGSEPPSRGKPPPPPSRTPAGPPPPPPPPLRNGHRDSITTVRSFLDDFESKYSFHPVEDFPAPEEYKHFQRIYPSKTNRAARGAPPLPPILR [WIPF2] | 1.2 | -0.764 |
| MPNFSGNWKIIRSENFEELLKVLGVNVMLRKIAVAAASKPAVEIKQEGDTFYIKTSTTVRTTEINFKVGEEFEEQTVDGRPCKSLVKWESENKMVCEQKLLKGEGPKTSWTRELTNDGELILTMTADDVVCTRVYVRE [CRABP2] | -0.109 | -0.0816 |
| MPPKKDVPVKKPAGPSISKPAAKPAAAGAPPAKTKAEPAVPQAPQKTQEPPVDLSKVVIEFNKDQLEEFKEAFELFDRVGDGKILYSQCGDVMRALGQNPTNAEVLKVLGNPKSDELKSRRVDFETFLPMLQAVAKNRGQGTYEDYLEGFRVFDKEGNGKVMGAELRHVLTTLGEKMTEEEVETVLAGHEDSNGCINYEAFLKHILSV [MYL6B] | 0.317 | -0.063 |
| MPPLKSPAAFHEQRRSLERARTEDYLKRKIRSRPERSELVRMHILEETSAEPSLQAKQLKLKRARLADDLNEKIAQRPGPMELVEKNILPVESSLKEAIIVGQVNYPKVADSSSFDEDSSDALSPEQPASHESQGSVPSPLEARVSEPLLSATSASPTQVVSQLPMGRDSREMLFLAEQPPLPPPPLLPPSLTNGTTIPTAKSTPTLIKQSQPKSASEKSQRSKKAKELKPKVKKLKYHQYIPPDQKQDRGAPPMDSSYAKILQQQQLFLQLQILNQQQQQHHNYQAILPAPPKSAGEALGSSGTPPVRSLSTTNSSSSSGAPGPCGLARQNSTSLTGKPGALPANLDDMKVAELKQELKLRSLPVSGTKTELIERLRAYQDQISPVPGAPKAPAATSILHKAGEVVVAFPAARLSTGPALVAAGLAPAEVVVATVASSGVVKFGSTGSTPPVSPTPSERSLLSTGDENSTPGDTFGEMVTSPLTQLTLQASPLQILVKEEGPRAGSCCLSPGGRAELEGRDKDQMLQEKDKQIEALTRMLRQKQQLVERLKLQLEQEKRAQQPAPAPAPLGTPVKQENSFSSCQLSQQPLGPAHPFNPSLAAPATNHIDPCAVAPGPPSVVVKQEALQPEPEPVPAPQLLLGPQGPSLIKGVAPPTLITDSTGTHLVLTVTNKNADSPGLSSGSPQQPSSQPGSPAPAPSAQMDLEHPLQPLFGTPTSLLKKEPPGYEEAMSQQPKQQENGSSSQQMDDLFDILIQSGEISADFKEPPSLPGKEKPSPKTVCGSPLAAQPSPSAELPQAAPPPPGSPSLPGRLEDFLESSTGLPLLTSGHDGPEPLSLIDDLHSQMLSSTAILDHPPSPMDTSELHFVPEPSSTMGLDLADGHLDSMDWLELSSGGPVLSLAPLSTTAPSLFSTDFLDGHDLQLHWDSCL [MKL1] | -0.244 | 0.297 |
| MPRCPAGAMDEGPVDLRTRPKAAGLPGAALPLRKRPLRAPSPEPAAPRGAAGLVVPLDPLRGGCDLPAVPGPPHGLARPEALYYPGALLPLYPTRAMGSPFPLVNLPTPLYPMMCPMEHPLSADIAMATRADEDGDTPLHIAVVQGNLPAVHRLVNLFQQGGRELDIYNNLRQTPLHLAVITTLPSVVRLLVTAGASPMALDRHGQTAAHLACEHRSPTCLRALLDSAAPGTLDLEARNYDGLTALHVAVNTECQETVQLLLERGADIDAVDIKSGRSPLIHAVENNSLSMVQLLLQHGANVNAQMYSGSSALHSASGRGLLPLVRTLVRSGADSSLKNCHNDTPLMVARSRRVIDILRGKATRPASTSQPDPSPDRSANTSPESSSRLSSNGLLSASPSSSPSQSPPRDPPGFPMAPPNFFLPSPSPPAFLPFAGVLRGPGRPVPPSPAPGGS [BCL3] | -0.154 | 0.0652 |
| MPTWGARPASPDRFAVSAEAENKVREQQPHVERIFSVGVSVLPKDCPDNPHIWLQLEGPKENASRAKEYLKGLCSPELQDEIHYPPKLHCIFLGAQGFFLDCLAWSTSAHLVPRAPGSLMISGLTEAFVMAQSRVEELAERLSWDFTPGPSSGASQCTGVLRDFSALLQSPGDAHREALLQLPLAVQEELLSLVQEASSGQGPGALASWEGRSSALLGAQCQGVRAPPSDGRESLDTGSMGPGDCRGARGDTYAVEKEGGKQGGPREMDWGWKELPGEEAWEREVALRPQSVGGGARESAPLKGKALGKEEIALGGGGFCVHREPPGAHGSCHRAAQSRGASLLQRLHNGNASPPRVPSPPPAPEPPWHCGDRGDCGDRGDVGDRGDKQQGMARGRGPQWKRGARGGNLVTGTQRFKEALQDPFTLCLANVPGQPDLRHIVIDGSNVAMVHGLQHYFSSRGIAIAVQYFWDRGHRDITVFVPQWRFSKDAKVRESHFLQKLYSLSLLSLTPSRVMDGKRISSYDDRFMVKLAEETDGIIVSNDQFRDLAEESEKWMAIIRERLLPFTFVGNLFMVPDDPLGRNGPTLDEFLKKPARTQGSSKAQHPSRGFAEHGKQQQGREEEKGSGGIRKTRETERLRRQLLEVFWGQDHKVDFILQREPYCRDINQLSEALLSLNF [KHNYN] | -0.219 | 0.384 |
| MPVERMRMRPWLEEQINSNTIPGLKWLNKEKKIFQIPWMHAARHGWDVEKDAPLFRNWAIHTGKHQPGVDKPDPKTWKANFRCAMNSLPDIEEVKDKSIKKGNNAFRVYRMLPLSERPSKKGKKPKTEKEDKVKHIKQEPVESSLGLSNGVSDLSPEYAVLTSTIKNEVDSTVNIIVVGQSHLDSNIENQEIVTNPPDICQVVEVTTESDEQPVSMSELYPLQISPVSSYAESETTDSVPSDEESAEGRPHWRKRNIEGKQYLSNMGTRGSYLLPGMASFVTSNKPDLQVTIKEESNPVPYNSSWPPFQDLPLSSSMTPASSSSRPDRETRASVIKKTSDITQARVKSC [IRF2] | 0.0622 | 0.0934 |
| MPYVDRQNRICGFLDIEEHENSGKFLRRYFILDTQANCLLWYMDNPQNLAMGAGAVGALQLTYISKVSIATPKQKPKTPFCFVINALSQRYFLQANDQKDMKDWVEALNQASKITVPKGGGLPMTTEVLKSLAAPPALEKKPQVAYKTEIIGGVVVHTPISQNGGDGQEGSEPGSHTILRRSQSYIPTSGCRASTGPPLIKSGYCVKQGNVRKSWKRRFFALDDFTICYFKCEQDREPLRTIFLKDVLKTHECLVKSGDLLMRDNLFEIITSSRTFYVQADSPEDMHSWIKEIGAAVQALKCHPRETSFSRSISLTRPGSSSLSSGPNSILCRGRPPLEEKKALCKAPSVASSWQPWTPVPQAGEKLLPPGDTSEDSLFTPRPGEGSAPGVLPSSRIRHRSEPQHPKEKPFMFNLDDENIRTSDV [PLEKHA2] | -0.19 | 0.121 |
| MQAKKRYFILLSAGSCLALLFYFGGLQFRASRSHSRREEHSGRNGLHHPSPDHFWPRFPDALRPFVPWDQLENEDSSVHISPRQKRDANSSIYKGKKCRMESCFDFTLCKKNGFKVYVYPQQKGEKIAESYQNILAAIEGSRFYTSDPSQACLFVLSLDTLDRDQLSPQYVHNLRSKVQSLHLWNNGRNHLIFNLYSGTWPDYTEDVGFDIGQAMLAKASISTENFRPNFDVSIPLFSKDHPRTGGERGFLKFNTIPPLRKYMLVFKGKRYLTGIGSDTRNALYHVHNGEDVVLLTTCKHGKDWQKHKDSRCDRDNTEYEKYDYREMLHNATFCLVPRGRRLGSFRFLEALQAACVPVMLSNGWELPFSEVINWNQAAVIGDERLLLQIPSTIRSIHQDKILALRQQTQFLWEAYFSSVEKIVLTTLEIIQDRIFKHISRNSLIWNKHPGGLFVLPQYSSYLGDFPYYYANLGLKPPSKFTAVIHAVTPLVSQSQPVLKLLVAAAKSQYCAQIIVLWNCDKPLPAKHRWPATAVPVVVIEGESKVMSSRFLPYDNIITDAVLSLDEDTVLSTTEVDFAFTVWQSFPERIVGYPARSHFWDNSKERWGYTSKWTNDYSMVLTGAAIYHKYYHYLYSHYLPASLKNMVDQLANCEDILMNFLVSAVTKLPPIKVTQKKQYKETMMGQTSRASRWADPDHFAQRQSCMNTFASWFGYMPLIHSQMRLDPVLFKDQVSILRKKYRDIERL [EXT1] | -0.163 | -0.14 |
| MQGSTRRMGVMTDVHRRFLQLLMTHGVLEEWDVKRLQTHCYKVHDRNATVDKLEDFINNINSVLESLYIEIKRGVTEDDGRPIYALVNLATTSISKMATDFAENELDLFRKALELIIDSETGFASSTNILNLVDQLKGKKMRKKEAEQVLQKFVQNKWLIEKEGEFTLHGRAILEMEQYIRETYPDAVKICNICHSLLIQGQSCETCGIRMHLPCVAKYFQSNAEPRCPHCNDYWPHEIPKVFDPEKERESGVLKSNKKSLRSRQH [NSMCE1] | -0.0633 | 0.0262 |
| MQLEIQVALNFIISYLYNKLPRRRVNIFGEELERLLKKKYEGHWYPEKPYKGSGFRCIHIGEKVDPVIEQASKESGLDIDDVRGNLPQDLSVWIDPFEVSYQIGEKGPVKVLYVDDNNENGCELDKEIKNSFNPEAQVFMPISDPASSVSSSPSPPFGHSAAVSPTFMPRSTQPLTFTTATFAATKFGSTKMKNSGRSNKVARTSPINLGLNVNDLLKQKAISSSMHSLYGLGLGSQQQPQQQQQPAQPPPPPPPPQQQQQQKTSALSPNAKEFIFPNMQGQGSSTNGMFPGDSPLNLSPLQYSNAFDVFAAYGGLNEKSFVDGLNFSLNNMQYSNQQFQPVMAN [TOB1] | -0.114 | 0.14 |
